According to patent publication US20030180306A1 (Pfizer, published 2003):

Molecular target: T1, recombinant purified GDF-8 (UniProt O14793 267-375, limits assumed)
T1 sequence (looked up): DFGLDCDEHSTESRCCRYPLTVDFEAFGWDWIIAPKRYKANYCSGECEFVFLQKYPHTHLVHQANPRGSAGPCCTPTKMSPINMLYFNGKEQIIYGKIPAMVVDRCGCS
Assay: cell-based or functional assay

IC50 for inhibition of GDF-8 (20 ng/ml) in the (CAGA)12 luciferase reporter gene assay, RD cells, purified GASP1-V5-His: ~3 nM
B1: mouse GASP1 cloned with a C-terminal V5-His tag (GASP1-V5-His) (other, not shown: small tags and cut ends)
chain: LPPIRYSHAGICPNDMNPNLWVDAQSTCKRECETDQECETYEKCCPNVCGTKSCVAARYMDVKGKKGPVGMPKEATCDHFMCLQQGSECDIWDGQPVCKCKDRCEKEPSFTCASDGLTYYNRCFMDAEACSKGITLSVVTCRYHFTWPNTSPPPPETTVHPTTASPETLGLDMAAPALLNHPVHQSVTVGETVSFLCDVVGRPRPELTWEKQLEDRENVVMRPNHVRGNVVVTNIAQLVIYNVQPQDAGIYTCTARNVAGVLRADFPLSVVRGGQARATSESSLNGTAFPATECLKPPDSEDCGEEQTRWHFDAQANNCLTFTFGHCHHNLNHFETYEACMLACMSGPLATCSLPALQGPCKAYVPRWAYNSQTGLCQSFVYGGCEGNGNNFESREACEESCPFPRGNQHCRACKPRQKLVTSFCRSDFVILGRVSELTEEQDSGRALVTVDEVLKDEKMGLKFLGREPLEVTLLHVDWTCPCPNVTVGETPLIIMGEVDGGMAMLRPDSFVGASSTRRVRKLREVMYKKTCDVLKDFLGLQ
